Experimental data reported in the RNAGym collection of RNA variant scans (doi:10.1093/molbev/msab373).

B1: Azoarcus group I ribozyme (parent)
chain: GUGCCUUGCGCCGGGAAACCACGCAAGGGAUGGUGUCAAAUUCGGCGAAACCUAAGCGCCCGCCCGGGCGUAUGGCAACGCCGAGCCAAGCUUCGGCGCCUGCGCCGAUGAAGGUGUAGAGACUAGACGGCACCCACCUAAGGCAAACGCUAUGGUGAAGGCAUAGUCCAGGGAGUGGCGAAAGUCACACAAACCGG

Variants of: B1
Test: reverse-splicing fitness (ratio to wild type); higher = more active; in vitro selection; Mg2+ level not given
In short: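 An in vitro group I ribozyme library with randomized positions was T7-transcribed and gel-purified. In triplicate, 10 pmol RNA in EPPS pH 7.5 was reacted with 50 pmoles of a 30-nt RNA substrate for 1 h at 37 °C across several added MgCl2 levels (1–48 mM), then stopped with EDTA. Products were reverse transcribed from a substrate-complementary primer, PCR-amplified and sequenced (HiSeq 4000). Fitness is a variant's read proportion after selection over that before, normalised to wild type.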

Variant | reverse-splicing fitness
C82U A111C A120G A145C C169G | 0.00924
C82U A111C A120G A145C C169A | 0.0073
C82U A111C A120G A145C C169U | 0.007
C82U A111C A120C A145G U176A | 0.0134
C82U A111C A120C A145G U176G | 0.00588
C82U A111C A120C A145G U176C | 0.0243
C82U A111C A120C A145C C150G C169A U176C | 0.00704
C82U A111C A120C A145C C150G C169A U176A | 0.00661
C82U A111C A120C A145C C150G C169A U176G | 0.00633
C82U A111C A120C C150G C169U U176G | 0.00565
C82U A111C A120C C150G C169U U176A | 0.00808
C82U A111C A120C C150G C169U U176C | 0.0134
C82U A111C A120C A145U C150U C169U | 0.0107
C82U A111C A120C A145U C150U C169G | 0.00745
C82U A111C A120C A145U C150U C169A | 0.00892
C82U A111C A120C A145U C169U U176G | 0.0054
C82U A111C A120C A145U C169U U176A | 0.0127
C82U A111C A120C A145U C169U U176C | 0.0145
C82U A111C A120C A145G C150A C169U U176C | 0.0172
C82U A111C A120C A145G C150A C169U U176G | 0.00639
C82U A111C A120C A145G C150A C169U U176A | 0.0176

Variant | reverse-splicing fitness
C82U A111C A120C | 0.0271
C82U A111C A120G | 0.0151
C82U A111C A120C A145G C150U U176G | 0.00635
C82U A111C A120C A145G C150U U176A | 0.0113
C82U A111C A120C A145G C150U U176C | 0.0186
C82U A111C A120C A145U C150U U176G | 0.00604
C82U A111C A120C A145U C150U U176C | 0.0144
C82U A111C A120C A145U C150U U176A | 0.0105
C82U A111C A120G A145C U176A | 0.0119
C82U A111C A120G A145C U176C | 0.0128
C82U A111C A120G A145C U176G | 0.00386
C82U A111C A120C A145G C150A U176G | 0.00689
C82U A111C A120C A145G C150A U176C | 0.0208
C82U A111C A120C A145G C150A U176A | 0.00976
C82U A111C A120C A145G C150U C169A | 0.00905
C82U A111C A120C A145G C150U C169G | 0.00807
C82U A111C A120C A145G C150U C169U | 0.012
C82U A111C A120C A145C C150A C169U U176C | 0.0117
C82U A111C A120C A145C C150A C169U U176A | 0.0156
C82U A111C A120C A145C C150A C169U U176G | 0.00596
C82U A111C A120G A145G C150A C169G U176C | 0.0241

Variant | reverse-splicing fitness
C82U A111C A120G A145G C150A C169G U176A | 0.0146
C82U A111C A120G A145G C150A C169G U176G | 0.00493
C82U A111C A120C C150U C169U U176A | 0.0178
C82U A111C A120C C150U C169U U176C | 0.0196
C82U A111C A120C C150U C169U U176G | 0.00584
C82U A111C A120C A145G C150A C169G | 0.00891
C82U A111C A120C A145G C150A C169A | 0.00917
C82U A111C A120C A145G C150A C169U | 0.0103
C82U A111C A120C A145C C169G U176G | 0.00555
C82U A111C A120C A145C C169G U176A | 0.0195
C82U A111C A120C A145C C169G U176C | 0.015
C82U A111C A120C A145C C150U C169A U176C | 0.00703
C82U A111C A120C A145C C150U C169A U176A | 0.012
C82U A111C A120C A145C C150U C169A U176G | 0.00658
C82U A111C A120G A145G | 0.0154
C82U A111C A120G A145C | 0.0118
C82U A111C A120C A145G C169U U176C | 0.0159
C82U A111C A120C A145G C169U U176A | 0.0159
C82U A111C A120C A145G C169U U176G | 0.00573
C82U A111C A120C A145C C150U U176G | 0.0052
C82U A111C A120C A145C C150U U176A | 0.00836

Variant | reverse-splicing fitness
C82U A111C A120C A145C C150U U176C | 0.0102
C82U A111C A120G A145G C150A | 0.00814
C82U A111C A120C A145C C150U C169U U176G | 0.0068
C82U A111C A120C A145C C150U C169U U176C | 0.0122
C82U A111C A120C A145C C150U C169U U176A | 0.0145
C82U A111C A120C C169G | 0.00813
C82U A111C A120C C169A | 0.00788
C82U A111C A120C C169U | 0.0127
C82U A111C A120C A145U C150G | 0.00723
C82U A111C A120C A145U C150A | 0.0082
C82U A111C A120C A145U C150U | 0.0199
C82U A111C A120C A145C C150U C169U | 0.0108
C82U A111C A120C A145C C150U C169G | 0.00644
C82U A111C A120C A145C C150U C169A | 0.00742
C82U A111C A120C C150A C169A U176C | 0.0136
C82U A111C A120C C150A C169A U176G | 0.00712
C82U A111C A120C C150A C169A U176A | 0.0186
C82U A111C A120C C150A C169U U176A | 0.0178
C82U A111C A120C C150A C169U U176G | 0.00677
C82U A111C A120C C150A C169U U176C | 0.0181
